Test results: IntAct's records for PubMed 20059542

B1: 26S proteasome regulatory subunit RPN13 (Saccharomyces cerevisiae), O13563 (parent)
chain: MSMSSTVIKFRAGVCEYNEDSRLCTPIPVQGEIEIKPNEEEELGFWDFEWRPTEKPVGRELDPISLILIPGETMWVPIKSSKSGRIFALVFSSNERYFFWLQEKNSGNLPLNELSAKDKEIYNKMIGVLNNSSESDEEESNDEKQKAQDVDVSMQD
B2: Ubiquitin domain-containing protein DSK2b (Arabidopsis thaliana (Mouse-ear cress)), Q9SII8 (parent)
chain: MGGEGDSSQPQSGEGEAVAVNIRCSNGTKFSVKTSLDSTVESFKELVAQSSDVPANQQRLIYKGRILKDDQTLLSYGLQADHTIHMVRGSAPSSAPPPAPAASQTTAPSVTRGVGSDNSSNLGGASPGESLFPGLGFNPLGGGNAMSGLFGAGLPDLVQTQQQLAQNPNMIRDMMNTPAIQNLMNNPEFMRSMIMNNPQMRELVDRNPELGHVLNDPSILRQTLEAARNPELMREMMRNTDRAMSNIESMPEGFNMLRRMYENVQEPLMNATTMSGNAGNNTGSNPFAALLGNQGVTTQGSDASNNSSTPNAGTGTIPNANPLPNPWGATGGQTTAPGRTNVGGDARSPGLGGLGGLGSLGGLGGLGMLGADSPLGATPDASQLSQLLQNPAISQMMQSVFSNPQYMNQLMSLNPQLRSMLDSNPQLREMMQNPDFLRQFSSPEMMQQMMTLQQSLSQNRNTASQDAGQTGAATGNNGGLDLLMNMFGSLGAGGLSGTNQSNVPPEERYATQLQQLQEMGFYDRAENIRALLATNGNVNAAVERLLGSIGQ
B3: Ubiquitin domain-containing protein DSK2 (Saccharomyces cerevisiae), P48510 (parent)
chain: MSLNIHIKSGQDKWEVNVAPESTVLQFKEAINKANGIPVANQRLIYSGKILKDDQTVESYHIQDGHSVHLVKSQPKPQTASAAGANNATATGAAAGTGATPNMSSGQSAGFNPLADLTSARYAGYLNMPSADMFGPDGGALNNDSNNQDELLRMMENPIFQSQMNEMLSNPQMLDFMIQSNPQLQAMGPQARQMLQSPMFRQMLTNPDMIRQSMQFARMMDPNAGMGSAGGAASAFPAPGGDAPEEGSNTNTTSSSNTGNNAGTNAGTNAGANTAANPFASLLNPALNPFANAGNAASTGMPAFDPALLASMFQPPVQASQAEDTRPPEERYEHQLRQLNDMGFFDFDRNVAALRRSGGSVQGALDSLLNGDV
partner: B1 chain

Variants of: B1
Details: with dsk2_yeast DSK2, P48510

Row | effect of a mutation on the interaction | Variant
1 | decreasing interaction | MSMSSTVIKFRAGVCEYNEDSRLCTPIPVQGEIEIKPNEEEEAGFWDFEWRPTEKPVGRELDPISLILIPGETMWVPIKSSKSGRIFALVFSSNERYFFWLQEKNSGNLPLNELSAKDKEIYNKMIGVLNNSSESDEEESNDEKQKAQDVDVSMQD [L43A]

Variants of: B1
Details: with dsk2_yeast DSK2, P48510
Remark: another data set of the same source

Row | effect of a mutation on the interaction | Variant
2 | disrupting interaction | MSMSSTVIKFRAGVCEYNEDSRLCTPIPVQGEIEIKPNEEEELGFWDFEWRPTEKPVGRELDPISLILIPGQTMWVPIKSSKSGRIFALVFSSNERYFFWLQEKNSGNLPLNELSAKDKEIYNKMIGVLNNSSESDEEESNDEKQKAQDVDVSMQD [E72Q]

Variants of: B1
Details: with dsk2_yeast DSK2, P48510
Remark: another data set of the same source

Row | effect of a mutation on the interaction | Variant
3 | disrupting interaction | MSMSSTVIKFRAGVCEYNEDSRLCTPIPVQGEIEIKPNEEEELGFWDFEWRPTEKPVGRELDPISLILIPGETMWVPIKSSKSGRIFALVRSSNERYFFWLQEKNSGNLPLNELSAKDKEIYNKMIGVLNNSSESDEEESNDEKQKAQDVDVSMQD [F91R]

Variants of: B2
Details: with rpn13_arath RPN13, O48726
Sequence of rpn13_arath RPN13, O48726 (O48726 whole entry): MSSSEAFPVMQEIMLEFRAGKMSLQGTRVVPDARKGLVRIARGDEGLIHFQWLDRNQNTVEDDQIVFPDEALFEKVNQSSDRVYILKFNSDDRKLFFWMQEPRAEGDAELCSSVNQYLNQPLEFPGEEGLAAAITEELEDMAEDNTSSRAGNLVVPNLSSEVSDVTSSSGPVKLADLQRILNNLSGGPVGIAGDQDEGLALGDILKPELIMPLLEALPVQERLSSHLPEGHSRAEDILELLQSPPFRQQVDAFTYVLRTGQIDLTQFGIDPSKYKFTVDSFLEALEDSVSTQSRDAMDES

Row | effect of a mutation on the interaction | Variant
4 | disrupting interaction | MGGEGDSSQPQSGEGEAVAVNIRCSNGTKFSVKTSLDSTVESFKELVAQSSDVPANQQRLAYKGRILKDDQTLLSYGLQADHTIHMVRGSAPSSAPPPAPAASQTTAPSVTRGVGSDNSSNLGGASPGESLFPGLGFNPLGGGNAMSGLFGAGLPDLVQTQQQLAQNPNMIRDMMNTPAIQNLMNNPEFMRSMIMNNPQMRELVDRNPELGHVLNDPSILRQTLEAARNPELMREMMRNTDRAMSNIESMPEGFNMLRRMYENVQEPLMNATTMSGNAGNNTGSNPFAALLGNQGVTTQGSDASNNSSTPNAGTGTIPNANPLPNPWGATGGQTTAPGRTNVGGDARSPGLGGLGGLGSLGGLGGLGMLGADSPLGATPDASQLSQLLQNPAISQMMQSVFSNPQYMNQLMSLNPQLRSMLDSNPQLREMMQNPDFLRQFSSPEMMQQMMTLQQSLSQNRNTASQDAGQTGAATGNNGGLDLLMNMFGSLGAGGLSGTNQSNVPPEERYATQLQQLQEMGFYDRAENIRALLATNGNVNAAVERLLGSIGQ [I61A]

Variants of: B3
Details: with rpn13_yeast RPN13, O13563

Row | effect of a mutation on the interaction | Variant
5 | disrupting interaction | I45A

Variants of: B3
Details: with rpn13_yeast RPN13, O13563
Remark: another data set of the same source

Row | effect of a mutation on the interaction | Variant
6 | disrupting interaction strength | I45A
7 | disrupting interaction strength | MSLNIHIKSGQDKWEVNVAPESTVLQFKEAINKANGIPVANQRAIYSGKILKDDQTVESYHIQDGHSVHLVKSQPKPQTASAAGANNATATGAAAGTGATPNMSSGQSAGFNPLADLTSARYAGYLNMPSADMFGPDGGALNNDSNNQDELLRMMENPIFQSQMNEMLSNPQMLDFMIQSNPQLQAMGPQARQMLQSPMFRQMLTNPDMIRQSMQFARMMDPNAGMGSAGGAASAFPAPGGDAPEEGSNTNTTSSSNTGNNAGTNAGTNAGANTAANPFASLLNPALNPFANAGNAASTGMPAFDPALLASMFQPPVQASQAEDTRPPEERYEHQLRQLNDMGFFDFDRNVAALRRSGGSVQGALDSLLNGDV [L44A]

Variants of: B3
Details: with rpn13_yeast RPN13, O13563
Remark: another data set of the same source

Row | effect of a mutation on the interaction | Variant
8 | disrupting interaction | MSLNIHIKSGQDKWEVNVAPESTVLQFKEAINKANGIPVANQRAIYSGKILKDDQTVESYHIQDGHSVHLVKSQPKPQTASAAGANNATATGAAAGTGATPNMSSGQSAGFNPLADLTSARYAGYLNMPSADMFGPDGGALNNDSNNQDELLRMMENPIFQSQMNEMLSNPQMLDFMIQSNPQLQAMGPQARQMLQSPMFRQMLTNPDMIRQSMQFARMMDPNAGMGSAGGAASAFPAPGGDAPEEGSNTNTTSSSNTGNNAGTNAGTNAGANTAANPFASLLNPALNPFANAGNAASTGMPAFDPALLASMFQPPVQASQAEDTRPPEERYEHQLRQLNDMGFFDFDRNVAALRRSGGSVQGALDSLLNGDV [L44A]
